T1: HTRA4, P83105
T1 sequence (P83105 378-476, limits assumed, looked up): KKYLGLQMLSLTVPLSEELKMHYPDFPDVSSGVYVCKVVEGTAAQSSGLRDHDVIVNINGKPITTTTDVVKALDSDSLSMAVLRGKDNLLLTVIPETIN

T2: MPP7, Q5T2T1
T2 sequence (Q5T2T1 134-230, limits assumed, looked up): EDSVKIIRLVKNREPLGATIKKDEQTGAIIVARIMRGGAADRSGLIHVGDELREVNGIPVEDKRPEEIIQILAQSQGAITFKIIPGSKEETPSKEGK

T3: DFNB31_2, Q9P202
T3 sequence (Q9P202 274-371, limits assumed, looked up): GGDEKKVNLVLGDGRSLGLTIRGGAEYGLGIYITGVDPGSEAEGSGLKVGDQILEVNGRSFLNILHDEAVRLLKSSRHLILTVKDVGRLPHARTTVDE

T4: ARHGAP21, Q5T5U3
T4 sequence (Q5T5U3 45-169, limits assumed, looked up): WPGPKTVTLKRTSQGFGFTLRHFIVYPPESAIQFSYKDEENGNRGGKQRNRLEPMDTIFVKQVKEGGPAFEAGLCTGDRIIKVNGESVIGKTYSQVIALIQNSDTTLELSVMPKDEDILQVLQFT

T5: SNTG1, Q9NSN8
T5 sequence (Q9NSN8 52-150, limits assumed, looked up): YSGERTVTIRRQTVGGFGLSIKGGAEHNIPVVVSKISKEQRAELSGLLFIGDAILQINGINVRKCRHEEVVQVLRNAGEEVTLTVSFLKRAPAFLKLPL

T6: MPP6, Q9NZW5
T6 sequence (Q9NZW5 125-219, limits assumed, looked up): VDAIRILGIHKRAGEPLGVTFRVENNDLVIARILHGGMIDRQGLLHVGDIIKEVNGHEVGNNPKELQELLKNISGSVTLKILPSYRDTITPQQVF

T7: NHERF3_1, Q5T2W1
T7 sequence (Q5T2W1 4-100, limits assumed, looked up): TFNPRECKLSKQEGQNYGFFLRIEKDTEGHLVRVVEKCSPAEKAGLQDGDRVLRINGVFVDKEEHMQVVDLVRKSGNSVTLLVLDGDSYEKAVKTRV

T8: GRIP1_3, Q9Y3R0
T8 sequence (Q9Y3R0 247-346, limits assumed, looked up): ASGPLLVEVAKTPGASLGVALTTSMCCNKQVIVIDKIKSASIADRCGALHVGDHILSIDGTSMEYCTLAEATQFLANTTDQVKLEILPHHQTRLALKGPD

T9: LIN7B, Q9HAP6
T9 sequence (Q9HAP6 88-185, limits assumed, looked up): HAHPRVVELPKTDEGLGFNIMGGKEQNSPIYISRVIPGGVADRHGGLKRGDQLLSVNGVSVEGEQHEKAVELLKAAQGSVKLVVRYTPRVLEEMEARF

T10: DLG3_2, Q92796
T10 sequence (Q92796 221-321, limits assumed, looked up): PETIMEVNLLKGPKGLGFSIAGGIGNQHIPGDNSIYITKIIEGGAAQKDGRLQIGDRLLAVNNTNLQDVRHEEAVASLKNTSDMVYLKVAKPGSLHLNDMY

T11: PDZRN3_1, Q9UPQ7
T11 sequence (Q9UPQ7 244-349, limits assumed, looked up): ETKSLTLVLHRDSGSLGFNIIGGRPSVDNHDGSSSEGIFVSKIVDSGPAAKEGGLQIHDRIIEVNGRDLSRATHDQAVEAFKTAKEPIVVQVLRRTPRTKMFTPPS

T12: SYNJ2BP, P57105
T12 sequence (P57105 8-110, limits assumed, looked up): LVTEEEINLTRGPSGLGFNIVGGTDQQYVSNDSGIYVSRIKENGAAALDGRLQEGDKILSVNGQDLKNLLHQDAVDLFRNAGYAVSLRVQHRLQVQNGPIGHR


How the values were obtained:
Assay in all cases: holdup assay
Design in all cases: key: below the threshold = too weak to quantify, mostly under pKd 3.1 to 4
Settings in all cases: plain residues with an end cap or a label only (N-terminal biotin on a linker: ado-ado)
[1] = biological target: T1, HTRA4, P83105
[2] = biological target: T2, MPP7, Q5T2T1
[3] = biological target: FRMPD2_3, Q68DX3
FRMPD2_3, Q68DX3, sequence (Q68DX3 1073-1166): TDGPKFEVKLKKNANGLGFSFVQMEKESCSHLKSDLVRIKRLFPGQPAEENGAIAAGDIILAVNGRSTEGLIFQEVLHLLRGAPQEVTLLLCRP

[4] = biological target: T3, DFNB31_2, Q9P202
[5] = biological target: GIPC2, Q8TF65
GIPC2, Q8TF65, sequence (Q8TF65 112-203): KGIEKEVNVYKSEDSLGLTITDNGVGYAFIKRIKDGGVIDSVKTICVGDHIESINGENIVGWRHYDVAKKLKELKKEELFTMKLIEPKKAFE

[6] = biological target: Inadl_10, Q8NI35
Inadl_10, Q8NI35, sequence (Q8NI35 1673-1763): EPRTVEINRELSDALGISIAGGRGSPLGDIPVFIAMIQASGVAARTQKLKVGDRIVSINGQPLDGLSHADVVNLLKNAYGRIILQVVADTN

[7] = biological target: T4, ARHGAP21, Q5T5U3
[8] = biological target: MAGI1_2, Q96QZ7
MAGI1_2, Q96QZ7, sequence (Q96QZ7 456-580): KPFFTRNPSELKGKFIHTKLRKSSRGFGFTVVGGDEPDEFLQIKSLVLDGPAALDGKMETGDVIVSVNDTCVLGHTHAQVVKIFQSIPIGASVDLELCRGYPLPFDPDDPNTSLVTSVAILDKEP

[9] = biological target: Inadl_2, Q8NI35
Inadl_2, Q8NI35, sequence (Q8NI35 238-335): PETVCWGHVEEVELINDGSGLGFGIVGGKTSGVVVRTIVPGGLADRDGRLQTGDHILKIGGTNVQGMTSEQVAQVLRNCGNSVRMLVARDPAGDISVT

[10] = biological target: T5, SNTG1, Q9NSN8
[11] = biological target: MAGI3_2, Q5TCQ9
MAGI3_2, Q5TCQ9, sequence (Q5TCQ9 398-503): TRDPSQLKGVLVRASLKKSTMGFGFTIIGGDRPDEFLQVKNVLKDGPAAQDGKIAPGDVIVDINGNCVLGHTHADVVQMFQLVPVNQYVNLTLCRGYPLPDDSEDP

[12] = biological target: GRIP2_7, Q9C0E4
GRIP2_7, Q9C0E4, sequence (Q9C0E4 934-1023): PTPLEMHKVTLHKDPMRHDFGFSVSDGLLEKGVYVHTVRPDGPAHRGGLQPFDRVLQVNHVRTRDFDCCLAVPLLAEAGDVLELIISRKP

[13] = biological target: T6, MPP6, Q9NZW5
[14] = biological target: GRIP2_5, Q9C0E4
GRIP2_5, Q9C0E4, sequence (Q9C0E4 544-642): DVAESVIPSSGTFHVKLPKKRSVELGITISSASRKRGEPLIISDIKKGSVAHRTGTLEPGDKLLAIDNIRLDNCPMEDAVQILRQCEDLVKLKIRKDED

[15] = biological target: T7, NHERF3_1, Q5T2W1
[16] = biological target: T8, GRIP1_3, Q9Y3R0
[17] = biological target: PICK1, Q9NRD5
PICK1, Q9NRD5, sequence (Q9NRD5 17-115): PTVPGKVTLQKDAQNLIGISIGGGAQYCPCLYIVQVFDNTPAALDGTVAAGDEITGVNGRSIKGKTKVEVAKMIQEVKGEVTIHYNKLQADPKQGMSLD

[18] = biological target: Inadl_6, Q8NI35
Inadl_6, Q8NI35, sequence (Q8NI35 1058-1167): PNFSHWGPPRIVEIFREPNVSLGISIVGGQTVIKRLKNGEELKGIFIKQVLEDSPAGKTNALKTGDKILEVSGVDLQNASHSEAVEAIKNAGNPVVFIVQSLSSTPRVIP

[19] = biological target: T9, LIN7B, Q9HAP6
[20] = biological target: T10, DLG3_2, Q92796
[21] = biological target: LDB3, O75112
LDB3, O75112, sequence (O75112 1-94): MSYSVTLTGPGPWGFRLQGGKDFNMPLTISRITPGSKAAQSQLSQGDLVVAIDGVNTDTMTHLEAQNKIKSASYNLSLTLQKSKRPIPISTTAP

[22] = biological target: MAGI2_5, Q86UL8
MAGI2_5, Q86UL8, sequence (Q86UL8 915-1017): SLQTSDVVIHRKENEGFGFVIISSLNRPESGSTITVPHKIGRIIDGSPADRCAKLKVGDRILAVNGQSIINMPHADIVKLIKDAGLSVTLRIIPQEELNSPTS

[23] = biological target: T11, PDZRN3_1, Q9UPQ7
[24] = biological target: T12, SYNJ2BP, P57105

| pKd [1] | pKd [2] | pKd [3] | pKd [4] | pKd [5] | pKd [6] | pKd [7] | pKd [8] | pKd [9] | pKd [10] | pKd [11] | pKd [12] | pKd [13] | pKd [14] | pKd [15] | pKd [16] | pKd [17] | pKd [18] | pKd [19] | pKd [20] | Binder | other results |
| --- | --- | --- | --- | --- | --- | --- | --- | --- | --- | --- | --- | --- | --- | --- | --- | --- | --- | --- | --- | --- | --- |
| below the threshold | 3.66 | below the threshold | below the threshold | below the threshold | below the threshold | below the threshold | below the threshold | below the threshold | below the threshold | below the threshold | 4.41 | below the threshold | below the threshold | 3.61 | below the threshold | below the threshold | below the threshold | below the threshold | below the threshold | QSPPNIYYKV [EFNB3, Q15768] | pKd [21]: below the threshold; pKd [22]: below the threshold; pKd [23]: below the threshold; pKd [24]: below the threshold |
| 3.7 | below the threshold | below the threshold | below the threshold | below the threshold | below the threshold | 3.97 | below the threshold | below the threshold | below the threshold | below the threshold | below the threshold | below the threshold | below the threshold | 5.15 | below the threshold | 4.08 | below the threshold | 3.47 | 3.75 | ANGLMQTSKL [SSTR5, P35346] | pKd [21]: below the threshold; pKd [22]: below the threshold; pKd [23]: below the threshold; pKd [24]: below the threshold |
| 4.13 | 4.47 | 3.57 | below the threshold | 3.54 | below the threshold | 4.25 | below the threshold | below the threshold | below the threshold | 4.39 | 3.58 | below the threshold | below the threshold | below the threshold | below the threshold | below the threshold | below the threshold | below the threshold | 3.57 | ETSLVKGIDI [DENND5A, Q6IQ26] | pKd [21]: 3.51; pKd [22]: below the threshold; pKd [23]: below the threshold; pKd [24]: below the threshold |
| 4 | below the threshold | below the threshold | below the threshold | below the threshold | below the threshold | 4.38 | below the threshold | below the threshold | below the threshold | below the threshold | below the threshold | below the threshold | below the threshold | below the threshold | below the threshold | below the threshold | below the threshold | below the threshold | below the threshold | NVYGTESVKI [GRIA3, P42263] | pKd [21]: below the threshold; pKd [22]: below the threshold; pKd [23]: below the threshold; pKd [24]: below the threshold |
| below the threshold | below the threshold | below the threshold | below the threshold | below the threshold | below the threshold | 3.74 | below the threshold | below the threshold | below the threshold | below the threshold | below the threshold | 3.62 | below the threshold | below the threshold | below the threshold | below the threshold | below the threshold | below the threshold | below the threshold | SRPRPDDLEI [GJA1, P17302] | pKd [21]: below the threshold; pKd [22]: below the threshold; pKd [23]: below the threshold; pKd [24]: below the threshold |
| 4.59 | below the threshold | below the threshold | below the threshold | below the threshold | below the threshold | below the threshold | 4.71 | 4.61 | 3.71 | 5.49 | 4.27 | below the threshold | below the threshold | 4.28 | below the threshold | 4.17 | 4.46 | 3.9 | 4.75 | NASRTRITFV [MCM7, P33993] | pKd [21]: below the threshold; pKd [22]: 3.75; pKd [23]: 3.89; pKd [24]: 4.44 |
